This is an account of results in article PMC6277223 (Neoplasia (New York, N.Y.), 2018).

This assay has as its target His-SIRT6 (UniProt Q8N6T7 1-355). Briefly: pull-down.

Sequence of His-SIRT6 (Q8N6T7 whole entry): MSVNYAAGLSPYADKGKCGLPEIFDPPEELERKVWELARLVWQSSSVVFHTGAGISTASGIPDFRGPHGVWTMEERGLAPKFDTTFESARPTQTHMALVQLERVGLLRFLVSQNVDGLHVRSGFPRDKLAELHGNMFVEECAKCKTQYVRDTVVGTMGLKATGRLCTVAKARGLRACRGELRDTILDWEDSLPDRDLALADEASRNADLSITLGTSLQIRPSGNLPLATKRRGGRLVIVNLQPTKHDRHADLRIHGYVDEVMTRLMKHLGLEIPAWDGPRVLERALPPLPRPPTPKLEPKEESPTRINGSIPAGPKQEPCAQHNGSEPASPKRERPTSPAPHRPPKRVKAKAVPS

B1: GST-PKCζ N-terminus (1-251 aa) (domain or fragment, UniProt Q05513 1-251, looked up)
chain: MPSRTGPKMEGSGGRVRLKAHYGGDIFITSVDAATTFEELCEEVRDMCRLHQQHPLTLKWVDSEGDPCTVSSQMELEEAFRLARQCRDEGLIIHVFPSTPEQPGLPCPGEDKSIYRRGARRWRKLYRANGHLFQAKRFNRRAYCGQCSERIWGLARQGYRCINCKLLVHKRCHGLVPLTCRKHMDSVMPSQEPPVDDKNEDADLPSEETDGIAYISSSRKHDSIKDDSEDLKPVIDGMDGIKISQGLGLQD
As to B1, the binding result was “binds”.
